This note sets out measurements from PMC7404307.

The data set concerns the target ternary troponin complex I-T-C (cTnI-cTnT-cTnC) (UniProt P19429+P45379+P63316). The data set can be described thus: SPR imaging. Conditions: L-DNA (all L-2'-deoxyribose); SPRi: PBS (10 mM phosphate, 137 mM NaCl, 2.7 mM KCl, pH 7.4), 25 C; filter binding: PBS, RT, 1 h; AlphaLisa: selection buffer (PBS, 1 mg/mL BSA, 0.01 ug/mL …). In general terms: Alpha assays give light when donor and acceptor beads are brought close together.

In the case of “CAGTGAGTGATGGTGAGGGTGAATCGGTGTCGACTATTAAATTAAGTTGTGGTTGTTCCCACACTGTCCATACACG [C6 spiegelmer]”, the Kd (in general, the equilibrium constant for the complex coming apart) turned out to be 0.305 nM.

In turn, “CAGTGAGTGATGGTGAGGGCTTAGTTCGCCGCTCATGCCGAATCTCCTGTATAAATACCCACACTGTCCATACACG [A6 spiegelmer]” showed a Kd of 0.54 nM.
